Data from paper PMC8687462 (bioRxiv, 2021).

Legend:
HSPB6-pSer16 [1] = molecular target: HSPB6-pSer16 (UniProt O14558); experiment: AUC
HSPB6-nhpSer16 [2] = molecular target: HSPB6-nhpSer16 (UniProt O14558); experiment: AUC
HSPB6-pSer16 [3] = molecular target: HSPB6-pSer16 (UniProt O14558); experiment: SEC-MALS; conditions: scale: 14-3-3 chains per HSPB6 chain
HSPB6-nhpSer16 [4] = molecular target: HSPB6-nhpSer16 (UniProt O14558); experiment: SEC-MALS; conditions: scale: 14-3-3 chains per HSPB6 chain
SEC-MALS = molecular target: the molecule itself; experiment: SEC-MALS

HSPB6-pSer16, sequence (O14558 whole entry): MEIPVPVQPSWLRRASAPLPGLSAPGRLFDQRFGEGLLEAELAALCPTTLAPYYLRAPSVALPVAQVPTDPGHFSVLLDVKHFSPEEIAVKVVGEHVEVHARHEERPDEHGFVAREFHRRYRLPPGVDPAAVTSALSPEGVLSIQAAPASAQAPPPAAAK
14-3-3ζ (untagged, co-expressed with His-tagged HSPB6), sequence (P63104 1-230): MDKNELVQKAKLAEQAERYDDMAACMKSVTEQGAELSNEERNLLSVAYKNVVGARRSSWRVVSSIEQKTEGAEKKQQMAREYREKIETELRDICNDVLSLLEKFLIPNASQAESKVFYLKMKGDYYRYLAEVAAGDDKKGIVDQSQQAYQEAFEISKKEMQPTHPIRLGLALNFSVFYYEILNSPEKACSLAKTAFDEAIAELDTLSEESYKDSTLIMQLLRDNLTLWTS

| Kd (HSPB6-pSer16 [1]) [nM] | Kd (HSPB6-nhpSer16 [2]) [nM] | stoichiometry N (HSPB6-pSer16 [3]) | stoichiometry N (HSPB6-nhpSer16 [4]) | Molecule | stoichiometry N (SEC-MALS) |
| --- | --- | --- | --- | --- | --- |
| 92 | 120 | 1 | 1 | 14-3-3ζ (untagged, co-expressed with His-tagged HSPB6) (from UniProt P63104 1-230) (natural protein) | – |
| – | – | – | – | 14-3-3ζ S58E (natural protein) MDKNELVQKAKLAEQAERYDDMAACMKSVTEQGAELSNEERNLLSVAYKNVVGARRSEWRVVSSIEQKTEGAEKKQQMAREYREKIETELRDICNDVLSLLEKFLIPNASQAESKVFYLKMKGDYYRYLAEVAAGDDKKGIVDQSQQAYQEAFEISKKEMQPTHPIRLGLALNFSVFYYEILNSPEKACSLAKTAFDEAIAELDTLSEESYKDSTLIMQLLRDNLTLWTS | 2 |
